From patent US20170166894A1, “APTAMERS FOR TOPICAL DELIVERY” (GlaxoSmithKline Intellectual Property Development Limited, published 2017)

Key:
[1] = molecular target: T1, IL-23 (p40/p19 heterodimer), endogenous from activated monocytes (Homo sapiens, UniProt P29460;Q9NPF7 SEQ:23-328,SEQ:20-189); test: cell_activity; phospho-STAT3 ELISA in PHA/IL-2 T-cells, seven titrations; a separate comparison with ARC20122 gave 0.075±0.030 nM (p832)
Procedure: (§1) The ability of ARC32225 to inhibit endogenous IL-23 activation of PHA/IL-2 activated T-cells was tested by measuring levels of phospho-STAT3 (“phospho-STAT3 assay”). The binding of IL-23 to its receptor on activated T-cells stimulates several STAT pathways, including STAT3. Peripheral Blood Mononuclear Cells (PBMC) from fresh human blood were isolated by centrifugation in a Histopaque gradient and treated with PHA/IL-2 to enrich for T-cells and to upregulate IL-23 receptors. Cells were serum starved and treated with endogenous IL-23 for 15 minutes, and then lysed. Relative levels of phospho-STAT3 in IL-23 treated lysates, in the presence and absence of ARC32225 or a neutralizing p19 antibody, were measured by ELISA (Cell Signaling Technologies, Danvers, Mass.). Titrations of aptamer/antibody were used to generate inhibition curves from which IC₅₀ determinations were made.
Percent inhibition was recorded for each concentration tested for all donors (data not shown). Individual IC50 for each donor were also recorded (data not shown).

[2] = molecular target: T1, IL-23 (p40/p19 heterodimer), endogenous …; test: cell_activity; STAT3 inhibition assay; compensatory pair restores activity; IL-23 source not stated for this assay
[3] = molecular target: T1, IL-23 (p40/p19 heterodimer), endogenous …; test: cell_activity; STAT3 inhibition assay; disrupts G2-C30 loop-tail tertiary contact; IL-23 source not stated for this assay
[4] = molecular target: T1, IL-23 (p40/p19 heterodimer), endogenous …; test: cell_activity; STAT3 activation in PHA blasts, endogenous IL-23
Procedure: Additionally, the ability of ARC20122 as well as its minimer ARC32225 to inhibit IL-23 dependent stimulation of STAT3 activity in PHA-Blast cells was tested. This assay utilized endogenous IL-23 produced from purified monocytes as described herein. […] ARC32225 performed slightly better than its parent clone with an IC₅₀ of 0.075 nM±0.030 nM. In both cases, the activity was markedly better than the control anti-p19 antibody, IC₅₀=0.69 nM±0.12 nM.
as §1

[5] = molecular target: IL-23 (p40/p19 heterodimer), recombinant human (Homo sapiens, UniProt P29460;Q9NPF7 SEQ:23-328,SEQ:20-189); test: in presence of competitor tRNA (18,000-fold excess); details: tags: R&D Systems 1290-IL-010/CF (catalogue number stated for the selection)
Chain of IL-23 (p40/p19 heterodimer), recombinant human (P29460 23-328, chain 1 of 2): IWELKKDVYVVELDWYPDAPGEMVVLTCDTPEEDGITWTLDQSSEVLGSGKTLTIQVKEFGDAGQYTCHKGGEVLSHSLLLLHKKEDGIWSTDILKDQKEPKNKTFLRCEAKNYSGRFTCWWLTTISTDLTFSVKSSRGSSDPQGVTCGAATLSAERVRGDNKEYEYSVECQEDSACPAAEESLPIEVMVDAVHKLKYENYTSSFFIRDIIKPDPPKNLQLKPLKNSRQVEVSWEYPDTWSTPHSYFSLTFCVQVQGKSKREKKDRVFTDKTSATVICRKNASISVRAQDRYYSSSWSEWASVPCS
Chain of IL-23 (p40/p19 heterodimer), recombinant human (Q9NPF7 20-189, chain 2 of 2): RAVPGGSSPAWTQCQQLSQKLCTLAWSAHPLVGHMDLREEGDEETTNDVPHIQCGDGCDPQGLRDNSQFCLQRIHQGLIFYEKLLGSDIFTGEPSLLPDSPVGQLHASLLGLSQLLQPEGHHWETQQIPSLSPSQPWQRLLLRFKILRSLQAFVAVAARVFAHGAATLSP

T1 sequence (P29460 23-328, chain 1 of 2): as the sequence (P29460 23-328, chain 1 of 2) above
T1 sequence (Q9NPF7 20-189, chain 2 of 2): as the sequence (Q9NPF7 20-189, chain 2 of 2) above

B1: ARC32225 (ssRNA)
RNA: AGGGAAAUCAGGCUUUAUCGGGCGCCGCUCCCUGUGCCAUCGUCCGAGAGUAGGUAGUCUG
modifications: mixed 2'-OMe and 2'-F as printed (10 mA, 1 fA, 14 mG, 6 fG, 3 mC, 13 fC, 1 mU, 13 fU); 3' idT
IC50 [1]: 0.296 nM

B2: ARC32225 G2A/C30U (ssRNA)
RNA: AAGGAAAUCAGGCUUUAUCGGGCGCCGCUUCCUGUGCCAUCGUCCGAGAGUAGGUAGUCUGU
modifications: mixed 2'-OMe and 2'-F as parent [mixed 2'-OMe and 2'-F as parent (positions not given)]
IC50 [2]: 0.5 nM

B3: ARC32225 G2A (ssRNA)
RNA: AAGGAAAUCAGGCUUUAUCGGGCGCCGCUCCCUGUGCCAUCGUCCGAGAGUAGGUAGUCUGU
modifications: mixed 2'-OMe and 2'-F as parent [mixed 2'-OMe and 2'-F as parent (positions not given)]
IC50 [3]: 108 nM

B4: ARC20122 (ssRNA)
RNA: GGAGGGAAAAGUUAUCAGGCUUCUAUCGGGCGCCGCGUUUUCCCUGUGUUAGCCAUCGUCCGACGAGUAGGCUAGUCUGAUGCC
modifications: 2'-OMe A and G, 2'-F C and U (mA,mG,fC,fU)
IC50 [4]: 0.26 nM | Kd [5]: 9.1 nM
